Results on three variants are retold here after publication PMC12148503, “Molecular Basis of Interchain Disulfide Bond Formation in BMP-9 and BMP-10” (Journal of molecular biology, 2025).

To fix the notation:
B1: Pro-(X)-BMP-9 [human] / itself (parent)
chain: KPLQSWGRGSAGGNAHSPLGVPGGGLPEHTFNLKMFLENVKVDFLRSLNLSGVPSQDKTRVEPPQYMIDLYNRYTSDKSTTPASNIVRSFSMEDAISITATEDFPFQKHILLFNISIPRHEQITRAELRLYVSCQNHVDPSHDLKGSVVIYDVLDGTDAWDSATETKTFLVSQDIQDEGWETLEVSSAVKRWVRSDSTKSKNKLEVTVESHRKGCDTLDISVPPGSRNLPFFVVFSNDHSSGTKETRLELREMISHEQESVLKKLSKDGSTEAGESSHEEDTDGHVAAGSTLAIEGRSSGAGSHCQKTSLRVNFEDIGWDSWIIAPKEYEAYECKGGCFFPLADDVTPTKHAIVQTLVHLKFPTKVGKACCVPTKLSPISVLYKDDMGVPTLKYHYEGMSVAECGCR

This experiment covers variants of B1. Kind of experiment: SDS-PAGE densitometry. The conditions noted are these: with itself; IMAC column purified Pro-BMP-9.
With chain 1 G367S, the screen value was 1.29. In the case of chain 1 K335R it was 0.7; in that of chain 1 K335R G367S, 3.24.
